The chains are these.
B1: HDV Ribozyme (parent)
chain: GGCCGGCAUGGUCCCAGCCUCCUCGCUGGCGCCGGCUGGGCAACAUUCCGAGGGGACCGUCCCCUCGGUAAUGGCGAAUGGGACCCA

Variants of B1 are the subject of this data set. Kind of data set: self-cleavage, relative activity (ratio to wild type); higher = more cleavage; co-transcriptional.
Regarding G10A C14A, the self-cleavage was 0.205.
Under G10A C14G stands 0.166.
For the variant G10C C14G, the self-cleavage turned out to be 0.312.
With G10A G17A, the self-cleavage worked out at 0.724.
The figure for G10A G67A is 0.66.
On to G10A U79G, for which the self-cleavage worked out at 0.232.
For the variant G10A C57U, the self-cleavage is 0.797.
Consider G10C A83G, for which the self-cleavage was found to be 0.578.
In the case of G10C G31A, the self-cleavage came to 0.393.
As to G10C G31C, the self-cleavage came to 0.237.
Under G10A C85A stands 1.09; under G10A C85U, 0.946; under G10U G68A, 0.584.
Take G10C G29C: the self-cleavage was 0.155.
Under G10C G29U stands 0.0707; under G10C C49U, 0.89; under G10C C49A, 0.443.
The figure for U9G U65G is 0.782.
Under G10U G11A stands 0.267.
For G10U G31A, the self-cleavage was 0.29.
Consider U9G U60G, for which the self-cleavage was 0.875.
Regarding G10A U47G, the self-cleavage is 0.853.
In the case of G10C G73U, the self-cleavage is 0.177.
Take G10C G73A: the self-cleavage was found to be 0.396.
Regarding G10C C30U, the self-cleavage amounted to 0.208.
Under G10U C36A stands 0.067; under G10A A70G, 0.801.
As for G10A A70C, the self-cleavage came out at 0.48.
The figure for G10A A71U is 0.712.
Under G10C C13U stands 0.119; under U9G G68A, 0.831.
Regarding U9G G68C, the self-cleavage stood at 1.02.
The figure for G10C G40U is 0.776; for G10A G39A it is 0.321.
The figure for G10A G29A is 0.0798; for G10A G29C it is 0.0767.
Under G10A G29U stands 0.0275.
For the variant G10U A78U, the self-cleavage was 0.0554.
Turning to G10U C75G, the self-cleavage is 0.0563.
As to G10C G17U, the self-cleavage is 0.494.
In the case of G10U C32G, the self-cleavage amounted to 0.0554.
Consider G10U C32A, for which the self-cleavage turned out to be 0.1.
The figure for G10A G38U is 0.0923.
G10C C75A: the self-cleavage amounted to 0.415.
Under U9G G81U stands 0.437; under U9G G67C, 1.08; under G10C A51C, 0.665.
On to G10U C57U, for which the self-cleavage stood at 0.855.
G10U A70C: the self-cleavage stood at 0.678.
G10U A70U: the self-cleavage was 0.602.
The figure for G10U G59A is 0.636; for G10C C58U it is 1.23.
The figure for G10U C49G is 0.391; for G10C G25A it is 0.308.
With G10C G52U, the self-cleavage was 1.03.
The figure for G10C G52A is 0.746; for U9G G82A it is 0.739; for G10C C57G it is 0.81.
For the variant G10A G50A, the self-cleavage came out at 0.657.
Consider G10C G39A, for which the self-cleavage came out at 0.259.
The figure for G10C G39U is 0.808; for G10A U12C it is 0.188; for G10C U12C it is 0.0978.
Turning to G10U C13U, the self-cleavage was 0.122.
With G10U C64U, the self-cleavage stood at 0.748.
Turning to G10U C64A, the self-cleavage came to 0.513.
Take G10A C58U: the self-cleavage was 0.972.
On to G10A C58A, for which the self-cleavage was 0.816.
The figure for G10C G59U is 0.815.
For G10C C15A, the self-cleavage was 0.237.
Under G10C C15U stands 0.582; under G10C C84G, 0.578; under G10C C84A, 0.705.
As to G10A C41A, the self-cleavage was 0.604.
The figure for G10C U65C is 0.831; for G10U A45C it is 0.175; for G10U A45G it is 1.07.
Under G10A A87G stands 0.857.
Under G10C C63A stands 0.88; under G10C C63G, 0.852.
Regarding G10A G54A, the self-cleavage came to 0.591.
In the case of U9G G54C, the self-cleavage was 0.831.
The figure for U9G G54A is 0.95.
For G10C G35U, the self-cleavage was 0.374.
Take U9G G80C: the self-cleavage amounted to 0.246.
Under U9G U72C stands 0.415; under G10U C58U, 0.982; under G10U C58A, 0.873.
The figure for G10C G53C is 1.02; for G10A C63U it is 0.655.
G10A C75G: the self-cleavage came to 0.086.
Under G10A C44G stands 0.415; under G10A C44U, 0.463.
In the case of U9G U20G, the self-cleavage was 0.
As for G10A G34C, the self-cleavage is 0.227.
Consider G10A U60C, for which the self-cleavage amounted to 0.787.
The figure for G10A C64G is 0.749; for G10A C64A it is 0.646.
In the case of G10U G53A, the self-cleavage is 0.769.
Under U9G G53A stands 1.03; under U9G G53U, 1.1; under G10C U20A, 0.0519.
Under G10A G40U stands 0.566; under G10A G40A, 0.905.
Consider G10U C30A, for which the self-cleavage turned out to be 0.158.
G10U C63G: the self-cleavage was determined as 0.798.
Under G10U C63A stands 0.845; under G10U C63U, 0.686; under G10C C18A, 0.0906.
With G10C C18U, the self-cleavage was 0.396.
Under G10C G68U stands 0.778; under G10C U37A, 0.177.
Under G10C U37C stands 1.05; under G10A U20G, 0.0791; under G10A C62G, 0.456.
For the variant G10U G34U, the self-cleavage stood at 0.323.
Under G10U G34C stands 0.189; under G10A U65A, 0.831.
The figure for G10C G80C is 0.104.
Regarding G10C G80U, the self-cleavage amounted to 0.219.
The figure for G10A A56G is 0.695; for G10A A56C it is 0.78.
Under G10C C64A stands 0.504; under G10C C64U, 0.892; under G10C C64G, 0.997.
For G10A G73U, the self-cleavage is 0.159.
The figure for U9G U12C is 0.923; for G10U G54A it is 0.735.
Under G10A U72C stands 0.175.
The figure for G10A U72G is 0.378; for G10U C19G it is 0.1.
As to G10A C18U, the self-cleavage turned out to be 0.138.
In the case of G10A C18G, the self-cleavage was determined as 0.0817.
In the case of G10A C18A, the self-cleavage came out at 0.0567.
The figure for G10C C26U is 0.997; for G10A G82C it is 0.231.
As to G10C C62U, the self-cleavage turned out to be 0.989.
Take G10C C62A: the self-cleavage was 0.919.
Under G10U G29C stands 0.0615; under G10U G29A, 0.0536; under G10U C18A, 0.0175.
For the variant G10C C33A, the self-cleavage came to 0.213.
Under U9G G59C stands 1.06; under U9G U47A, 1.16; under G10C C24U, 0.646.
Regarding G10C C24A, the self-cleavage amounted to 0.692.
Under G10C G11U stands 0.185; under G10A U27A, 0.587.
Under G10A U27G stands 0.98.
On to G10U C84G, for which the self-cleavage amounted to 0.54.
Under G10A A43U stands 0.355.
The figure for G10A A43G is 0.217; for G10C G28U it is 0.148; for G10C G28C it is 0.107.
Take G10U A87C: the self-cleavage amounted to 0.801.
For G10A G52A, the self-cleavage amounted to 0.749.
In the case of G10C G54A, the self-cleavage is 0.831.
As to G10C A70G, the self-cleavage was 0.516.
The figure for G10C U47G is 1.35.
Regarding G10C U47A, the self-cleavage came out at 0.853.
The figure for G10C A16U is 1.49; for U9G U37C it is 1.37.
Regarding G10A C13U, the self-cleavage turned out to be 0.179.
The figure for G10U G28U is 0.109.
For G10U G28C, the self-cleavage came out at 0.0941.
Take G10U G40C: the self-cleavage worked out at 0.313.
Under G10U G40U stands 0.842.
